Here are results for five molecules from patent US20200317768A1 (published 2020).

Assay in all cases: SPR (Biacore), antibody captured, FcgR analyte, 25 C
Test [1] addresses T1, cynomolgus monkey FcγRIIa1 extracellular domain, C-terminal His-tag (cynomolgus monkey).
T1 construct: also called cyno FcγRIIa1; cynoFcgRIIa1; not shown: His-tag added to C-terminus
T1 chain: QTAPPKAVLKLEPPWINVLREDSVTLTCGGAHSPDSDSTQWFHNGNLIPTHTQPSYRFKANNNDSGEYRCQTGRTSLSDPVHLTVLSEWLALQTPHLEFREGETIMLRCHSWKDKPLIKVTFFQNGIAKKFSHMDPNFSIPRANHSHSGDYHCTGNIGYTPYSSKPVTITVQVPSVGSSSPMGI

Test [2] addresses T2, cynomolgus monkey FcγRIIa2 extracellular domain, C-terminal His-tag (cynomolgus monkey).
T2 construct: also called cyno FcγRIIa2; cynoFcgRIIa2; not shown: His-tag added to C-terminus
T2 chain: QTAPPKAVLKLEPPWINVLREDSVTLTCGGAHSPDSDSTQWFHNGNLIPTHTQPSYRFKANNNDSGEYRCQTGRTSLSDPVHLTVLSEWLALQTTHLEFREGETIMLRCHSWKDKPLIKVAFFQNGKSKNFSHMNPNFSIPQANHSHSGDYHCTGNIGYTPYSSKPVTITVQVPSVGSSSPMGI

The target in test [3] is T3, cynomolgus monkey FcγRIIa3 extracellular domain, C-terminal His-tag (cynomolgus monkey).
T3 construct: also called cyno FcγRIIa3; cynoFcgRIIa3; not shown: His-tag added to C-terminus
T3 chain: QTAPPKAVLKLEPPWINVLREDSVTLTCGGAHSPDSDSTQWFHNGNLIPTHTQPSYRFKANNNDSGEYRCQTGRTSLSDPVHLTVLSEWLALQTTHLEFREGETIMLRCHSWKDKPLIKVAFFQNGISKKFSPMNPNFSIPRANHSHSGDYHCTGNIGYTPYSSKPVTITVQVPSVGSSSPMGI

For test [4], the target named is T4, cynomolgus monkey FcγRIIb extracellular domain, C-terminal His-tag (cynomolgus monkey).
T4 construct: also called cyno FcγRIIb; cynoFcγRIIb; not shown: His-tag added to C-terminus
T4 chain: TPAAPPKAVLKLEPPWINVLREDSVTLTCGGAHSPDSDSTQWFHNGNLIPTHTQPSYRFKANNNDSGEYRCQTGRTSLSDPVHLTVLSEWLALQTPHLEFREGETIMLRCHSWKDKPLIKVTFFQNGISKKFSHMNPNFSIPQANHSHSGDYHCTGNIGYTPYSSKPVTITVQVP

Test [5] has as its target T5, cynomolgus monkey FcγRIIIaS extracellular domain, C-terminal His-tag (cynomolgus monkey, UniProt A3RFZ7 21-206 (rhesus entry)).
T5 construct: also called cyno FcγRIIIaS; cynoFcγRIIIaS; not shown: His-tag added to C-terminus

Test [6] deals with T6, human FcγRIIaR extracellular domain, C-terminal His-tag (human, UniProt P12318 34-217).
T6 construct: also called human FcγRIIa (type R); FcgRIIaR; not shown: His-tag added to C-terminus
T6 chain: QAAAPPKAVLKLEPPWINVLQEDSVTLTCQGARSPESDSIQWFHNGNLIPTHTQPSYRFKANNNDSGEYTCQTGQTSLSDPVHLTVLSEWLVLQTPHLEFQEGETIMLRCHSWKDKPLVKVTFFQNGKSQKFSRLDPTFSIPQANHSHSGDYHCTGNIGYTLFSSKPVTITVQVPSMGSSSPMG

In test [7] the target is T7, human FcγRIIb extracellular domain, C-terminal His-tag (human, UniProt P31994 43-217).
T7 construct: also called FcgRIIb (human); not shown: His-tag added to C-terminus
T7 sequence: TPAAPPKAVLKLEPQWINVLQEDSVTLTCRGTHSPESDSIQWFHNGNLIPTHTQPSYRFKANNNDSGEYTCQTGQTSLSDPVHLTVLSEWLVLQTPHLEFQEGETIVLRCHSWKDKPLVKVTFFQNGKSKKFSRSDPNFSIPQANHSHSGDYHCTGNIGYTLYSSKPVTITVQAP

Test [8] concerns the target T8, human FcγRIIIaV extracellular domain, C-terminal His-tag (human, UniProt P08637 17-208).
T8 construct: also called FcgRIIIaV; not shown: His-tag added to C-terminus

T5 sequence (A3RFZ7 21-206): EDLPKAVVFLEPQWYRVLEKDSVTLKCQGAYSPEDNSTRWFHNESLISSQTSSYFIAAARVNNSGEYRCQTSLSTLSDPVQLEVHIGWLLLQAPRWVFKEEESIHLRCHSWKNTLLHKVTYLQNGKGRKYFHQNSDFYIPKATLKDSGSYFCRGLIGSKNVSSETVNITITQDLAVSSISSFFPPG
T8 sequence (P08637 17-208 F176V): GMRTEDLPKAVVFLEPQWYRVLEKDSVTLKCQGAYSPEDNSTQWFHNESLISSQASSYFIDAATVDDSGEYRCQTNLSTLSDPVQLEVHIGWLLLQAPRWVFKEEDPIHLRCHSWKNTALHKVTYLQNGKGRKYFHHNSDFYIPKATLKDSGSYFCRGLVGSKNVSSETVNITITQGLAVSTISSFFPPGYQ

B1: M103205H795-MY143/M103202L889-SK1 (antibody, human IgG1, kappa)
heavy: QVTLKESGPVLVKPTETLTLTCTVSGIDLSHDDISWVRQAPGKGLEWVGIISYAGSTYYASWAKGRLTISKDTSKNQVVLTMTNMDPVDTATYYCARGVPAYSHGGDLWGQGTLVTVSSASTKGPSVFPLAPSSKSTSGGTAALGCLVKDYFPEPVTVSWNSGALTSGVHTFPAVLQSSGLYSLSSVVTVPSSSLGTQTYICNVNHKPSNTKVDKKVEPKSCDKTHTCPPCPAPELLSGPSVFLFPPKPKDTLMISRTPEVTCVVVDVSEEDPEVKFNWYVDGVEVHNAKTKPREEQYNSTYRVVSVLTVLHQDWLNGKEYKCKVSNKALPAPIEKTISKAKGQPREPQVYTLPPSREEMTKNQVSLTCLVKGFYPSDIAVEWESNGQPENNYKTTPMVLDSDGSFFLYSKLTVDKSRWQQGNVFSCSVMHEALHNHYTQKSLSLSP
light: DIVMTQSPATLSLSPGERATLSCTSSQSVYHANWLSWFQQKPGQPPKLLIYWASTLAYGVPSRFSGSGSGTDFTLTISSLQPEDAATYYCAGGYGGGRYAFGQGTKVEIKRTVAAPSVFIFPPSDEQLKSGTASVVCLLNNFYPREAKVQWKVDNALQSGNSQESVTEQDSKDSTYSLSSTLTLSKADYEKHKVYACEVTHQGLSSPVTKSFNRGEC
On to B1, for which the Kd in test [1] was 1100 nM; in test [2] it was 1300 nM; in test [3] it was 2900 nM; in test [4] it was 460 nM; in test [5] it was 280 nM; in test [6], 83 nM. The Kd in test [7] worked out at 680 nM; in test [8], 1500 nM.

B2: M103205H795-MY213/M103202L889-SK1 (antibody, human IgG1, kappa)
heavy: QVTLKESGPVLVKPTETLTLTCTVSGIDLSHDDISWVRQAPGKGLEWVGIISYAGSTYYASWAKGRLTISKDTSKNQVVLTMTNMDPVDTATYYCARGVPAYSHGGDLWGQGTLVTVSSASTKGPSVFPLAPSSKSTSGGTAALGCLVKDYFPEPVTVSWNSGALTSGVHTFPAVLQSSGLYSLSSVVTVPSSSLGTQTYICNVNHKPSNTKVDKKVEPKSCDKTHTCPPCPAPELLNGPSVFLFPPKPKDTLMISRTPEVTCVVVDVSDEDPEVKFNWYVDGVEVHNAKTKPREEQYNSTYRVVSVLTVLHQDWLNGKEYKCKVSNKALPKPIEKTISKAKGQPREPQVYTLPPSREEMTKNQVSLTCLVKGFYPSDIAVEWESNGQPENNYKTTPKVLDSDGSFFLYSKLTVDKSRWQQGNVFSCSVMHEALHNHYTQKSLSLSP
light: DIVMTQSPATLSLSPGERATLSCTSSQSVYHANWLSWFQQKPGQPPKLLIYWASTLAYGVPSRFSGSGSGTDFTLTISSLQPEDAATYYCAGGYGGGRYAFGQGTKVEIKRTVAAPSVFIFPPSDEQLKSGTASVVCLLNNFYPREAKVQWKVDNALQSGNSQESVTEQDSKDSTYSLSSTLTLSKADYEKHKVYACEVTHQGLSSPVTKSFNRGEC
As for B2, the Kd came out at 530 nM in test [1]; 520 nM in test [2]; 1300 nM in test [3]; 160 nM in test [4]; 1900 nM in test [5]; 630 nM in test [6]. Also, the equilibrium dissociation constant (Kd) came to 360 nM in test [7] and 11000 nM in test [8].

B3: M103205H795-MY219/M103202L889-SK1 (antibody, human IgG1, kappa)
heavy: QVTLKESGPVLVKPTETLTLTCTVSGIDLSHDDISWVRQAPGKGLEWVGIISYAGSTYYASWAKGRLTISKDTSKNQVVLTMTNMDPVDTATYYCARGVPAYSHGGDLWGQGTLVTVSSASTKGPSVFPLAPSSKSTSGGTAALGCLVKDYFPEPVTVSWNSGALTSGVHTFPAVLQSSGLYSLSSVVTVPSSSLGTQTYICNVNHKPSNTKVDKKVEPKSCDKTHTCPPCPAPELLGYPSVFLFPPKPKDTLMISRTPEVTCVVVDVSDEDPEVKFNWYVDGVEVHNAKTKPREEQYNSTYRVVSVLTVLHQDWLNGKEYKCKVSNKALPKPIEKTISKAKGQPREPQVYTLPPSREEMTKNQVSLTCLVKGFYPSDIAVEWESNGQPENNYKTTPPVLDSDGSFFLYSKLTVDKSRWQQGNVFSCSVMHEALHNHYTQKSLSLSP
light: DIVMTQSPATLSLSPGERATLSCTSSQSVYHANWLSWFQQKPGQPPKLLIYWASTLAYGVPSRFSGSGSGTDFTLTISSLQPEDAATYYCAGGYGGGRYAFGQGTKVEIKRTVAAPSVFIFPPSDEQLKSGTASVVCLLNNFYPREAKVQWKVDNALQSGNSQESVTEQDSKDSTYSLSSTLTLSKADYEKHKVYACEVTHQGLSSPVTKSFNRGEC
Take B3: the equilibrium dissociation constant (Kd) in test [1] came to 3500 nM; in test [2], 4000 nM; in test [3], 5500 nM; in test [4], 1300 nM; in test [5], 6200 nM; in test [6] it was 160 nM. Further, the figures for the Kd in test [7] and in test [8] were 340 nM and 91000 nM, respectively.

B4: M103205H795-MY227/M103202L889-SK1 (antibody, human IgG1, kappa)
heavy: QVTLKESGPVLVKPTETLTLTCTVSGIDLSHDDISWVRQAPGKGLEWVGIISYAGSTYYASWAKGRLTISKDTSKNQVVLTMTNMDPVDTATYYCARGVPAYSHGGDLWGQGTLVTVSSASTKGPSVFPLAPSSKSTSGGTAALGCLVKDYFPEPVTVSWNSGALTSGVHTFPAVLQSSGLYSLSSVVTVPSSSLGTQTYICNVNHKPSNTKVDKKVEPKSCDKTHTCPPCPAPELLGYPSVFLFPPKPKDTLMISRTPEVTCVVVDVSDEDPEVKFNWYVDGVEVHNAKTKPREEQYNSTYRVVSVLTVLHQDWLNGKEYKCKVSNKALPKPIEKTISKAKGQPREPQVYTLPPSREEMTKNQVSLTCLVKGFYPSDIAVEWESNGQPENNYKTTPKVLDSDGSFFLYSKLTVDKSRWQQGNVFSCSVMHEALHNHYTQKSLSLSP
light: DIVMTQSPATLSLSPGERATLSCTSSQSVYHANWLSWFQQKPGQPPKLLIYWASTLAYGVPSRFSGSGSGTDFTLTISSLQPEDAATYYCAGGYGGGRYAFGQGTKVEIKRTVAAPSVFIFPPSDEQLKSGTASVVCLLNNFYPREAKVQWKVDNALQSGNSQESVTEQDSKDSTYSLSSTLTLSKADYEKHKVYACEVTHQGLSSPVTKSFNRGEC
Turning to B4, the dissociation constant (Kd) was 1900 nM in test [1]; 2500 nM in test [2]; 2500 nM in test [3]; 510 nM in test [4]; 3900 nM in test [5]; 62 nM in test [6]. Besides, the results for the Kd in test [7] and in test [8] were 130 nM and 18000 nM, respectively.

B5: M103205H795-MY209/M103202L889-SK1 (antibody, human IgG1, kappa)
heavy: QVTLKESGPVLVKPTETLTLTCTVSGIDLSHDDISWVRQAPGKGLEWVGIISYAGSTYYASWAKGRLTISKDTSKNQVVLTMTNMDPVDTATYYCARGVPAYSHGGDLWGQGTLVTVSSASTKGPSVFPLAPSSKSTSGGTAALGCLVKDYFPEPVTVSWNSGALTSGVHTFPAVLQSSGLYSLSSVVTVPSSSLGTQTYICNVNHKPSNTKVDKKVEPKSCDKTHTCPPCPAPELLNGPSVFLFPPKPKDTLMISRTPEVTCVVVDVSDEDPEVKFNWYVDGVEVHNAKTKPREELYNSTYRVVSVLTVLHQDWLNGKEYKCKVSNTALPKPIEKTISKAKGQPREPQVYTLPPSREEMTKNQVSLTCLVKGFYPSDIAVEWESNGQPENNYKTTPPVLDSDGSFFLYSKLTVDKSRWQQGNVFSCSVMHEALHNHYTQKSLSLSP
light: DIVMTQSPATLSLSPGERATLSCTSSQSVYHANWLSWFQQKPGQPPKLLIYWASTLAYGVPSRFSGSGSGTDFTLTISSLQPEDAATYYCAGGYGGGRYAFGQGTKVEIKRTVAAPSVFIFPPSDEQLKSGTASVVCLLNNFYPREAKVQWKVDNALQSGNSQESVTEQDSKDSTYSLSSTLTLSKADYEKHKVYACEVTHQGLSSPVTKSFNRGEC
On to B5, for which the Kd was found to be 630 nM in test [1]; 630 nM in test [2]; 1900 nM in test [3]; 190 nM in test [4]; 2200 nM in test [5]; 830 nM in test [6]. Also, the values for the Kd in test [7] and in test [8] were 500 nM and 14000 nM, respectively.
